Experimental data: publication PMC12289034, “A highly potent human antibody neutralizing all serotypes of BK polyomavirus” (PLOS Pathogens, 2025)

B1: mAb 319C07 (antibody, V domains shown)
VH: QVQLQQWGAGLLKPSETLSLTCAVYRGSFSAYYWTWFRQPPGKGLEWIGEINHRGYTNYNPSLRGRVSISVDTSKKQFSLKLRSVNAADTAVYYCATLRSTSGWHDYFDYWGQGTLVTVSS
VL: EIVLTQSPGTLSLSPGERATLSCRASQSVSSSYLAWYQQTPGQAPRLLIYGASSRATGIPDRFSGSGSGTDFTLTISRLEPEDFVVYFCLQYGSSPLTFGPGTKVDIK
notes: heavy chain variable region of 319C07; human IgG1 heavy chain constant region (soluble IgG1 expression vector); kappa light chain of 319C07; also called antibody 319C07; AntiBKV; source: HEK293F, transient transfection, purified from supernatant (Protein G)

Legend:
[1] = molecular target: BKPyV VP1 serotype Ib1 pentamer (aa 31-300) (BK polyomavirus) (UniProt P03088); assay: crystal structure; VP1 Ib1 pentamer mixed with 319C07 Fab 1:1.7, complex isolated by SEC; hanging drop, 20 °C, 21% PEG1500, 0.1 M MIB pH 4.75; 1.96 Å
[2] = molecular target: T1, BKPyV VP1 serotype IVc2 pentamer (aa 31-300) (BK polyomavirus serotype IVc2, isolate …, UniProt B6VQF5, strain); assay: ELISA; VP1 coated on the plate (1 µg/ml, 4 °C over weekend), blocked with 5% skim milk; antibody dilutions in PBS with 0.5% skim milk 1 h; HRP goat anti-human IgG; apparent EC50, three-parameter fit; conditions: both partners purified
T1 construct: BK polyomavirus major capsid protein VP1, serotype IVc2, aa 31-300; A thrombin site lies between the N-terminal His tag and VP1 (pET15b); also called VP1 IV; VP1 IVc2; source: E. coli BL21 (DE3), purified (NiNTA, SEC)

[3] = molecular target: T2, BKPyV VP1 serotype III (BK polyomavirus, serotype III (isolate …, UniProt P14996, strain)); assay: as above; conditions: both partners purified
T2 construct: BK polyomavirus major capsid protein VP1, serotype III; H69 instead of K69 is printed; the assembly state of the bought protein is not otherwise described; also called VP1 III; VP1-III; source: bought: Abcam (ab74567), expressed in S. cerevisiae, purified tag-free

[4] = molecular target: T3, BKPyV VP1 serotype II pentamer (aa 31-300) (BK polyomavirus serotype II, isolate …, UniProt A1IHZ0, strain); assay: as above; conditions: both partners purified
T3 construct: BK polyomavirus major capsid protein VP1, serotype II, aa 31-300; A thrombin site lies between the N-terminal His tag and VP1 (pET15b); also called VP1 II; VP1-II; source: E. coli BL21 (DE3), purified (NiNTA, SEC)

[5] = molecular target: T1, BKPyV VP1 serotype IVc2 pentamer (aa …); assay: cell-based or functional assay
[6] = molecular target: T2, BKPyV VP1 serotype III; assay: cell-based or functional assay
[7] = molecular target: T3, BKPyV VP1 serotype II pentamer (aa …); assay: cell-based or functional assay

Molecule | stoichiometry N [1] | EC50 [2] | EC50 [3] | EC50 [4] | IC50 of neutralisation of BKPyV serotype IV pseudovirus (luciferase in HEK293TT cells, 72 h) [5] | IC50 of neutralisation of BKPyV serotype III pseudovirus (luciferase in HEK293TT cells, 72 h) [6] | IC50 of neutralisation of BKPyV serotype II pseudovirus (luciferase in HEK293TT cells, 72 h) [7]
BKPyV VP1 serotype Ib1 pentamer (aa 31-300) (from UniProt P03088 31-300) (domain or fragment) | 5 |  |  |  |  |  | 
B1 |  | 60 pM | 60 pM | 60 pM | 0.88 pM | 29.5 pM | 0.35 pM
